# According to patent publication US20110027273A1:
# Molecular target: mouse CD22 (mouse) (UniProt P35329)
# Test: cell-based or functional assay
# Sequence of UniProt P35329 (P35329 22-868): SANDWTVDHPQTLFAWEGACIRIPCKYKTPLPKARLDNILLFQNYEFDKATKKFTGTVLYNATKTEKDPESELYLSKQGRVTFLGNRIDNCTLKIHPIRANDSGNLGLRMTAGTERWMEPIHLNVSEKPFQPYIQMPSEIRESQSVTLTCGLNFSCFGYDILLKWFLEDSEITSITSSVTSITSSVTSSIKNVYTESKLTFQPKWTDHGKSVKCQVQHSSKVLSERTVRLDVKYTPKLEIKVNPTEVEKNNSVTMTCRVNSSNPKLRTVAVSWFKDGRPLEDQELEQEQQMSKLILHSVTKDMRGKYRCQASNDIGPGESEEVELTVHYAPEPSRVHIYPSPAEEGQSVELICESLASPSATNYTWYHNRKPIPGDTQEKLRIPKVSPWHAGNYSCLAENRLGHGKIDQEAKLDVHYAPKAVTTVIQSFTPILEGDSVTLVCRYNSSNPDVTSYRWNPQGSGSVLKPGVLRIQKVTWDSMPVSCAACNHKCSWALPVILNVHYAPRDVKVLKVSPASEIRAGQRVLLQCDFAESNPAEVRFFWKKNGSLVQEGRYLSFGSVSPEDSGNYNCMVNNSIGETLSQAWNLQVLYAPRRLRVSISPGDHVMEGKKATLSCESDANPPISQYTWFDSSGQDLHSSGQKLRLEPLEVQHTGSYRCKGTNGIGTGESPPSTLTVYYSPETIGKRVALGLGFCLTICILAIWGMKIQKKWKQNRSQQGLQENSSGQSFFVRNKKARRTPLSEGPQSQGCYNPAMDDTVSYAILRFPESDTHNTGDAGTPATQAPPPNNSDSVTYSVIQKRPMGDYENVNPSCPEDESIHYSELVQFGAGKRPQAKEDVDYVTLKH
substance,measurement,value
CD22/cal (Cy34.1 mAb conjugated to N-acetyl gamma calicheamicin dimethyl acid) (antibody),"IC50, in vitro cytotoxicity (proliferation of LPS-stimulated primary B cells, 48 hours)",0.08 µg/mL
same,"IC50, proliferation of LPS-stimulated primary mouse B cells (3H thymidine, 48 hr)",0.03 µg/mL
same,"selectivity against the control immunoconjugate J110/cal (IC50 3 µg/ml), B cell proliferation",100 fold
